B1: TM2 domain of in the TOXCAT construct (between MBP and ToxR) [guinea pig] / itself (parent)
chain: WVFVNAGGWMGAMCLLHASL

Variants of: B1
Assay: TOXCAT
Details: with itself;; read off a plot

| Variant | response |
| --- | --- |
| WVFVNALLWMGAMCLLHASL [chain 1 G7L G8L] | -2.7 %GpA |
| WVFVNAGGWMGAMCLLAASL [chain 1 H17A] | 20 %GpA |
| WVFVNAGLWMGAMCLLHASL [chain 1 G8L] | 89 %GpA |
| WVFVNAGIWMGAMCLLHASL [chain 1 G8I] | 100 %GpA |
| WVFVNAIGWMGAMCLLHASL [chain 1 G7I] | 94 %GpA |
| WVFVNALGWMGAMCLLHASL [chain 1 G7L] | 77 %GpA |
